According to patent US20130156761A1:

Molecular target: human CX3CR1 with FLAG tag at N-terminus, stably expressed on HEK293T cells (Multispan) (human) (UniProt P49238)
Assay: cell-based or functional assay

Sequence of human CX3CR1 with FLAG tag at N-terminus, stably expressed on HEK293T cells (Multispan) (human) (P49238 whole entry): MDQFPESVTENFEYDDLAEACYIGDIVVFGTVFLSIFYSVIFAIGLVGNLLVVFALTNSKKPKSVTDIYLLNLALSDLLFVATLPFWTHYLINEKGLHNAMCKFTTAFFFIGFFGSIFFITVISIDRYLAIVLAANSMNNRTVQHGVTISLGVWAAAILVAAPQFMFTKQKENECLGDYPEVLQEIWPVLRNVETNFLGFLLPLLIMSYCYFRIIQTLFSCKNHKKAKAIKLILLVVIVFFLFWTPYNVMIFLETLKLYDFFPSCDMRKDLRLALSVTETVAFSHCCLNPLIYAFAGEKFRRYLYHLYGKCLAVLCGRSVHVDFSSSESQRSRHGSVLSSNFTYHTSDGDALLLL

EC80 of calcium flux: 40 nM
Substance: CX3CL1 (control agonist, Peprotech Cat#300-31) (from UniProt P78423 25-100) (ligand)
